Our source for the enrichment values is publication PMC11969024 (2025).

First the molecules themselves.
B1: peptide HD2 (from tick evasin EVA4) / CCL11 (biotinylated, synthetic) (parent complex)
chain 1: EEDDYTAYAPLTCYFT
chain 2: not shown

This assay covers variants of B1.
As to chain 1 Y5C, the enrichment is -5.28 log2 (difference from the parental peptide).
Next, chain 1 Y5I: -4.75 log2 (difference from the parental peptide).
Next, chain 1 T6P: -4.98 log2 (difference from the parental peptide).
Next, chain 1 D3K: -4.93 log2 (difference from the parental peptide).
As to chain 1 D3T, the enrichment was -2 log2 (difference from the parental peptide).
Next, chain 1 D3F: -1.93 log2 (difference from the parental peptide); chain 1 P10W: -7.42 log2 (difference from the parental peptide).
To chain 1 Y14W belongs -0.519 log2 (difference from the parental peptide); to chain 1 Y14A, -6.29 log2 (difference from the parental peptide); to chain 1 Y14H, -2.21 log2 (difference from the parental peptide).
Next, chain 1 Y14K: -7.74 log2 (difference from the parental peptide); chain 1 Y14S: -5.39 log2 (difference from the parental peptide).
As to chain 1 Y14G, the enrichment is -8.75 log2 (difference from the parental peptide).
Next, chain 1 Y14C: -5.72 log2 (difference from the parental peptide); chain 1 Y14N: -4.02 log2 (difference from the parental peptide); chain 1 F15R: -3.27 log2 (difference from the parental peptide).
In the case of chain 1 F15Q, the enrichment is -0.31 log2 (difference from the parental peptide).
To chain 1 F15D belongs -0.00314 log2 (difference from the parental peptide); to chain 1 F15A, 0.737 log2 (difference from the parental peptide); to chain 1 A9N, -5.15 log2 (difference from the parental peptide).
For the variant chain 1 A9I, the enrichment is -10.6 log2 (difference from the parental peptide).
Next, chain 1 A9T: -3.11 log2 (difference from the parental peptide).
To chain 1 A9H belongs -4.7 log2 (difference from the parental peptide); to chain 1 A9W, -5.62 log2 (difference from the parental peptide).
To chain 1 A9F belongs -8.22 log2 (difference from the parental peptide); to chain 1 L11E, -2.74 log2 (difference from the parental peptide); to chain 1 L11F, -0.71 log2 (difference from the parental peptide).
As to chain 1 E1Y, the enrichment was -1.08 log2 (difference from the parental peptide).
To chain 1 E1W belongs -3.15 log2 (difference from the parental peptide); to chain 1 E1D, 2.04 log2 (difference from the parental peptide); to chain 1 C13W, -7.9 log2 (difference from the parental peptide).
To chain 1 C13F belongs -7.62 log2 (difference from the parental peptide); to chain 1 A7L, 0.532 log2 (difference from the parental peptide); to chain 1 A7K, 1.27 log2 (difference from the parental peptide).
As to chain 1 A7D, the enrichment was 2.81 log2 (difference from the parental peptide).
Next, chain 1 T16I: 0.443 log2 (difference from the parental peptide); chain 1 T16G: 1.39 log2 (difference from the parental peptide); chain 1 Y8I: -9.96 log2 (difference from the parental peptide).
Regarding chain 1 E2S, the enrichment was -1.71 log2 (difference from the parental peptide).
Take chain 1 E2M: the enrichment was -1.91 log2 (difference from the parental peptide).
Next, chain 1 T12R: -3.61 log2 (difference from the parental peptide).
To chain 1 T12D belongs -2.24 log2 (difference from the parental peptide).
With chain 1 T12N, the enrichment is -0.967 log2 (difference from the parental peptide).
To chain 1 T12C belongs -6.12 log2 (difference from the parental peptide); to chain 1 T12S, -1.64 log2 (difference from the parental peptide).
As for chain 1 T12W, the enrichment is -2.96 log2 (difference from the parental peptide).
To chain 1 T12E belongs -1.39 log2 (difference from the parental peptide).
